Legend:
Assay in all cases: ELISA
[1] = biological target: HA of A/Texas/50/2012 (H3N2) (influenza A virus (H3N2))
[2] = biological target: HA of A/Texas/36/1991 (H1N1) (influenza A virus (H1N1))
[3] = biological target: HA of A/Solomon Islands/03/2006 (H1N1) (influenza A virus (H1N1))

Measured: EC50 fold over wild-type rFluA-20

B1: rFluA-20 heavy chain mutant Y100aA (antibody, V domains shown)
VH: QVQLQESGPGLVKPSETLSLTCSVSGVSVTSDIYYWTWIRQPPGKGLEWIGYIFYNGDTNYNPSLKSRVTMSIDTSKNEFSLRLTSVTAADTAVYFCARGTEDLGACSSGSCPNHWGQGTLVTVSS
VL: DIQMTQSPSSLSASIGDRVTITCRPSQNIRSFLNWFQHKPGKAPKLLIYAASNLQSGVPSRFSGSGSGTEFTLTIRSLQPEDFATYYCQQSYNTPPTFGQGTKVEIK
> 100 fold: all assays above

— patent publication US20210252150A1
